Our source for the abundance fitness values is the Human Domainome abundance scans (Beltran et al. 2025).

± gives the uncertainty stated by the source.

B1: Zinc finger protein ZIC 2, residues 250 to 295; numbered along this chain, O95409 (parent)
chain: QCIKQELICKWIDPEQLSNPKKSCNKTFSTMHELVTHVSVEHVGGP

In this data set the parent is B1. The data set is described as follows: abundance fitness (aPCA) (normalised: wild type 0, dead -1); higher = more abundant; growth selection in yeast, the domain comes from the species named. Conditions: Homo sapiens.
Take QCIKQELICKWPDPEQLSNPKKSCNKTFSTMHELVTHVSVEHVGGP: the abundance fitness is 0.018 ± 0.1.
The same measure for QCIKQELICKWNDPEQLSNPKKSCNKTFSTMHELVTHVSVEHVGGP: -0.417 ± 0.16.
The same measure for QCIKQELICKWYDPEQLSNPKKSCNKTFSTMHELVTHVSVEHVGGP: -0.175 ± 0.14; for QCIKQELICKWSDPEQLSNPKKSCNKTFSTMHELVTHVSVEHVGGP: -0.022 ± 0.09.
For QCIKQELICKWRDPEQLSNPKKSCNKTFSTMHELVTHVSVEHVGGP the value was -0.228 ± 0.086.
On to QCIKQELICKWMDPEQLSNPKKSCNKTFSTMHELVTHVSVEHVGGP, for which the abundance fitness was -0.077 ± 0.11.
For QCIKQELICKWTDPEQLSNPKKSCNKTFSTMHELVTHVSVEHVGGP, the abundance fitness was determined as 0.041 ± 0.097.
The same measure for QCIKQELICKWIDPEQLLNPKKSCNKTFSTMHELVTHVSVEHVGGP: -0.145 ± 0.088.
With QCIKQELICKWIDPEQLINPKKSCNKTFSTMHELVTHVSVEHVGGP, the abundance fitness was -0.409 ± 0.12.
The same measure for QCIKQELICKWIDPEQLFNPKKSCNKTFSTMHELVTHVSVEHVGGP: -0.15 ± 0.1.
Turning to QCIKQELICKWIDPEQLNNPKKSCNKTFSTMHELVTHVSVEHVGGP, the abundance fitness amounted to 0.286 ± 0.12.
For the variant QCIKQELICKWIDPEQLHNPKKSCNKTFSTMHELVTHVSVEHVGGP, the abundance fitness was -0.389 ± 0.12.
The same measure for QCIKQELICKWIDPEQLANPKKSCNKTFSTMHELVTHVSVEHVGGP: -0.348 ± 0.092.
For QCIKQELICKWIDPEQLPNPKKSCNKTFSTMHELVTHVSVEHVGGP the value was -0.171 ± 0.11.
For QCIKQELICKWIDPEQLENPKKSCNKTFSTMHELVTHVSVEHVGGP the value was -0.394 ± 0.11; for QCIKQELICKWIDPEQLQNPKKSCNKTFSTMHELVTHVSVEHVGGP, -0.36 ± 0.1; for QCIKQELICKWIDPEQLGNPKKSCNKTFSTMHELVTHVSVEHVGGP, -0.427 ± 0.088.
As for QCIKQELICKWIDPEQLMNPKKSCNKTFSTMHELVTHVSVEHVGGP, the abundance fitness was -0.348 ± 0.099.
The same measure for QCIKQELICKWIDPEQLCNPKKSCNKTFSTMHELVTHVSVEHVGGP: -0.06 ± 0.1.
For QCIKQELICKWIDPEQLDNPKKSCNKTFSTMHELVTHVSVEHVGGP the value was -0.125 ± 0.1; for QCIKQELICKWIDPEQLKNPKKSCNKTFSTMHELVTHVSVEHVGGP, 0.282 ± 0.11; for QCIKQELICKWIDPEFLSNPKKSCNKTFSTMHELVTHVSVEHVGGP, -0.376 ± 0.12.
The same measure for QCIKQELICKWIDPEGLSNPKKSCNKTFSTMHELVTHVSVEHVGGP: -0.251 ± 0.086; for QCIKQELICKWIDPERLSNPKKSCNKTFSTMHELVTHVSVEHVGGP: -0.432 ± 0.088; for QCIKQELICKWIDPELLSNPKKSCNKTFSTMHELVTHVSVEHVGGP: 0.068 ± 0.087.
Turning to QCIKQELICKWIDPEYLSNPKKSCNKTFSTMHELVTHVSVEHVGGP, the abundance fitness was -0.211 ± 0.12.
The same measure for QCIKQELICKWIDPEALSNPKKSCNKTFSTMHELVTHVSVEHVGGP: -0.144 ± 0.091; for QCIKQELICKWIDPESLSNPKKSCNKTFSTMHELVTHVSVEHVGGP: 0.073 ± 0.09.
Take QCIKQELICKWIDPEKLSNPKKSCNKTFSTMHELVTHVSVEHVGGP: the abundance fitness is -0.335 ± 0.11.
The same measure for QCIKQELICKWIDPEELSNPKKSCNKTFSTMHELVTHVSVEHVGGP: -0.397 ± 0.1; for QCIKQELICKWIDPEVLSNPKKSCNKTFSTMHELVTHVSVEHVGGP: -0.302 ± 0.091; for QCIKQELICKWIDPEDLSNPKKSCNKTFSTMHELVTHVSVEHVGGP: -0.074 ± 0.11.
For QCIKQELICKWIDPEILSNPKKSCNKTFSTMHELVTHVSVEHVGGP the value was -0.11 ± 0.1.
As for QCIKQELICKWIDPEHLSNPKKSCNKTFSTMHELVTHVSVEHVGGP, the abundance fitness was -0.077 ± 0.13.
The same measure for QCIKQELICKWIDPEPLSNPKKSCNKTFSTMHELVTHVSVEHVGGP: -0.285 ± 0.11; for QCIKQELICKWIDPEWLSNPKKSCNKTFSTMHELVTHVSVEHVGGP: -0.069 ± 0.097.
The same measure for QCIKQELICKWIDPEMLSNPKKSCNKTFSTMHELVTHVSVEHVGGP: -0.25 ± 0.1; for QCIKQELICKWIDPECLSNPKKSCNKTFSTMHELVTHVSVEHVGGP: -0.014 ± 0.11; for QCIKQELICKWIDPENLSNPKKSCNKTFSTMHELVTHVSVEHVGGP: -0.414 ± 0.14.
Turning to QCIKQELICKWIDPETLSNPKKSCNKTFSTMHELVTHVSVEHVGGP, the abundance fitness is -0.051 ± 0.1.
For QCIKQELICKWIQPEQLSNPKKSCNKTFSTMHELVTHVSVEHVGGP the value was -0.492 ± 0.12; for QCIKQELICKWIKPEQLSNPKKSCNKTFSTMHELVTHVSVEHVGGP, -0.66 ± 0.13; for QCIKQELICKWIRPEQLSNPKKSCNKTFSTMHELVTHVSVEHVGGP, -0.442 ± 0.089.
The same measure for QCIKQELICKWISPEQLSNPKKSCNKTFSTMHELVTHVSVEHVGGP: -0.352 ± 0.1; for QCIKQELICKWIMPEQLSNPKKSCNKTFSTMHELVTHVSVEHVGGP: -0.568 ± 0.12.
The same measure for QCIKQELICKWIWPEQLSNPKKSCNKTFSTMHELVTHVSVEHVGGP: -0.311 ± 0.093; for QCIKQELICKWIIPEQLSNPKKSCNKTFSTMHELVTHVSVEHVGGP: -0.559 ± 0.22.
On to QCIKQELICKWIHPEQLSNPKKSCNKTFSTMHELVTHVSVEHVGGP, for which the abundance fitness was -0.216 ± 0.15.
Turning to QCIKQELICKWICPEQLSNPKKSCNKTFSTMHELVTHVSVEHVGGP, the abundance fitness is -0.176 ± 0.12.
For QCIKQELICKWIPPEQLSNPKKSCNKTFSTMHELVTHVSVEHVGGP the value was -0.387 ± 0.11; for QCIKQELICKWIGPEQLSNPKKSCNKTFSTMHELVTHVSVEHVGGP, -0.328 ± 0.087.
Take QCIKQELICKWIFPEQLSNPKKSCNKTFSTMHELVTHVSVEHVGGP: the abundance fitness came to 0.041 ± 0.14.
The same measure for QCIKQELICKWIVPEQLSNPKKSCNKTFSTMHELVTHVSVEHVGGP: -0.434 ± 0.091; for QCIKQELICKWIAPEQLSNPKKSCNKTFSTMHELVTHVSVEHVGGP: -0.101 ± 0.091.
On to QCIKQELICKWITPEQLSNPKKSCNKTFSTMHELVTHVSVEHVGGP, for which the abundance fitness is -0.81 ± 0.13.
The same measure for QCIKQELICKWIEPEQLSNPKKSCNKTFSTMHELVTHVSVEHVGGP: -0.235 ± 0.094.
